Columns and labels:
[1] = biological target: T1, NnABI5 (ABA Insensitive 5) (Nelumbo nucifera, UniProt A0A1U8B646 1-478); test: EMSA; unlabelled probe weakens the shift in a dose-dependent way; Not stated; EMSA with Beyotime chemiluminescent nucleic acid detection kit; details: protein: recombinant; tags: His (pCold TF vector); chain copies: 2; blunt
T1 sequence: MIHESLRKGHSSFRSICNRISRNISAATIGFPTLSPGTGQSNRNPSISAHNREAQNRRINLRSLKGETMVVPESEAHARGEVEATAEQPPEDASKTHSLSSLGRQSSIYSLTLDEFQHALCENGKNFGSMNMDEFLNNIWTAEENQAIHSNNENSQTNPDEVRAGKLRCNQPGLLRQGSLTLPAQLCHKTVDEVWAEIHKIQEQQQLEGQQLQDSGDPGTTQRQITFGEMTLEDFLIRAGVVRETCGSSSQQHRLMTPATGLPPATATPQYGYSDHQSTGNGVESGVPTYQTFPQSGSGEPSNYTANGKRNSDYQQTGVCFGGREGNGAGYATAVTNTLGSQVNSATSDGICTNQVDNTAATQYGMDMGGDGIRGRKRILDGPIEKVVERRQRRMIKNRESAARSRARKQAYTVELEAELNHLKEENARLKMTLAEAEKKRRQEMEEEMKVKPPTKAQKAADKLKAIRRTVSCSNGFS

[2] = biological target: T1, NnABI5 (ABA Insensitive 5); test: EMSA; Not stated; EMSA with Beyotime chemiluminescent nucleic acid detection kit; details: protein: recombinant; tags: His (pCold TF vector); chain copies: 2; blunt

B1: NnSS2 promoter probe (WT) (dsDNA)
DNA 1: CTTCCTCGGTTTTTCCACGTGTTTCTTCTGGAGTAT
DNA 2: ATACTCCAGAAGAAACACGTGGAAAAACCGAGGAAG
binding result [1]: binds

B2: NnSBEII promoter mutant probe (dsDNA)
DNA 1: GTGGCAACGACTGGTAAAAAAACTTACGTCACCCAT
DNA 2: ATGGGTGACGTAAGTTTTTTTACCAGTCGTTGCCAC
binding result [2]: no binding

B3: NnSBEII promoter probe (WT) (dsDNA)
DNA 1: GTGGCAACGACTGGTCACGTGACTTACGTCACCCAT
DNA 2: ATGGGTGACGTAAGTCACGTGACCAGTCGTTGCCAC
binding result [1]: binds

B4: NnSS2 promoter mutant probe (dsDNA)
DNA 1: CTTCCTCGGTTTTTCAAAAAATTTCTTCTGGAGTAT
DNA 2: ATACTCCAGAAGAAATTTTTTGAAAAACCGAGGAAG
binding result [2]: no binding

— PMC12610401, “The miR395b–ABI5 module regulates amylopectin branching and biosynthesis and affects lotus root quality”
